Assay results taken from PMC5568246.
Each block holds one substance with its values, some of them ahead of it.

How the values were obtained:
[1] = target: 70S ribosomes (E. coli JE28, with endogenous L7/L12) (E. coli (endogenous in JE28)) (UniProt P0A7K2); assay: other fluorescence titration
[2] = target: L7/L12-depleted 70S ribosomes (E. coli (endogenous in JE28)) (UniProt P0A7J3); assay: SEC
[3] = target: L7/L12-depleted 70S ribosomes reconstituted with recombinant L12 (E. coli | E. coli (endogenous in JE28)) (UniProt P0A7K2); assay: co-sedimentation
[4] = target: L7/L12-depleted 70S ribosomes (E. coli (endogenous in JE28)) (UniProt P0A7J3); assay: co-sedimentation
[5] = target: recombinant ribosomal protein L12 (E. coli) (UniProt P0A7K2); assay: SEC

Sequence of UniProt P0A7J3 (P0A7J3 whole entry, looked up): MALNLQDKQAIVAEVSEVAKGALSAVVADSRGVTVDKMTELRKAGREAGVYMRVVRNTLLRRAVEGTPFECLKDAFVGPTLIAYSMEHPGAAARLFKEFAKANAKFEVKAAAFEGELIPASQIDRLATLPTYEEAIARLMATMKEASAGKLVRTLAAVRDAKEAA

Substance: elongation factor G (from UniProt P0A6M8 1-704) (enzyme)
- percent co-eluted with the ribosomes [2]: 20%

Substance: recombinant ribosomal protein L12 (from UniProt P0A7K2 1-121) (natural protein)
- stoichiometry N [5]: 2

Substance: release factor 3 (from UniProt P0A7I4 1-529) (enzyme)
- percent binding relative to complete 70S [3]: 100%

The remaining lines, values ahead:

- Kd [1]: 23 nM
Substance: EF-G-591 coupled with 5-iodoacetomido fluorescein (from UniProt P0A6M8 1-704) (enzyme)

- percent binding relative to complete 70S [3]: 100%
Substance: initiation factor 2 (from UniProt P0A705 1-890) (enzyme)

- percent binding retained [2]: > 50%
- percent binding retained [4]: > 50%
Substance: leader peptidase A (from UniProt P60785 1-599) (enzyme)
